Measurements from US11298402B2, “Lysosomal degradation of lipids and proteins and method of use thereof” (University of Ottawa, priority 2015, dated 2022).
Entries after “also recorded” stand apart in the source; their conditions may differ.

Legend:
[1] = tested on: primary neurons from parkinsonian mice; test: Lysosome and cell morphology in Parkinson's disease primary neurons; type: cell-based, mouse
mice = test: Mice fed a high fat diet for 30 days, adenoviral vector via tail vein; type: in vivo; conditions: HFD 30 days, Adv-MG1023 10^9 pfu/mouse, 48 h; vs empty vector
Source text: (§1) Mice were fed with a high fat diet (HFD) for 30 days, and injected with Adv-empty vector (EV) or Adv-MG1023 expressing Arl8b^T34N via the tail vein (10^9 pfu/mouse). Forty eight hours after virus injection, mice were euthanized and dissected to collect liver tissue samples. Liver tissues were frozen fresh in Cryomatrix (ThermoScientific), and then sectioned and processed for oil red o staining. Intrahepatic liver lipid droplets in the liver sections were observed under bright field microscope (Zeiss AxioImager M2).
as §1, with “In FIG. 48, mice” for “Mice”, “Adv-MG1023 vector (FIG. 46)” for “Adv-MG1023”, “tissues.” for “tissue samples.”

[2] = tested on: McA-RH7777 cells stably expressing human apoB-100 and human apoC-III (A18-C3); type: cell-based; conditions: for effect on EPA-induced lipid degradation (CLD turnover): cells silenced, transfected or pre-treated, then EPA 0.4 mM, 6 h
Method: In certain non-limiting examples described herein, McA-RH7777 cells stably expressing human apoB-100 and human apoC-III (designated A18-C3) were used for the studies. […] In addition, these studies, particularly those concerning EPA- or DHA-triggered lysosomal motility and CLD degradation, were also performed using primary rat hepatocytes. Transfection of plasmids encoding proteins of interest, or transfection of siRNA specific for silencing target gene expression, was achieved using the FuGENE HP Extreme reagent (Roche). Representative gene silencing siRNA sequences, which are not meant to be limiting, are described in Table 1, and plasmids encoding proteins of interest are described in Table 2. The effectiveness of siRNA silencing was verified by Western-blotting of cellular content of the target proteins, and by intracellular localization assay using siRNA-Tracker (Mirus Bioscience). Twenty-four h after plasmid transfection, or 48 h after siRNA transfection, the cells were cultured in lipid-rich media containing fetal bovine serum (20%) and OA (0.4 mM). The lipid-laden cells were switched to fresh media supplemented with OA or EPA (0.4 mM). In live imaging experiments, LipidTOX Red (Life Technologies) and LysoTracker (Life Technologies) were added to media prior to EPA treatment, to visualize lipid droplets and lysosomes, respectively. For visualizing peroxisomes, Peroxisome-GFP (Invitrogen) was introduced to the cells 24 h prior to experiments. Quantification of cell lipid contents was achieved either by direct mass measurement (HPTLC) and counting the number of lipid droplets using Image J Lipid Droplet Counter Plug-In, or indirectly by Western blot analysis of cellular content of ADRP. Secretion of apoB and TG-rich lipoprotein was determined by Western blot analysis and metabolic labeling. Mitochondrial β-oxidation was measured using MitoSOX Red (Life Technologies) in situ. Autophagic flux was determined by using Cyto-ID assay (Enzo Life Science) and by monitoring GFP-LC3 clustering in situ. Interaction of Arl8b and subunits of the HOPS complex was determined in situ by the proximity ligation assay (Olink Biosience). Cytoplasmic pH was measured using the cytosolic pHrodo indicator reagent (Invitrogen). Live imaging of fluorescent-tagged proteins was performed 1 h post-EPA treatment. Cells were also collected at the time of EPA treatment for transmission EM and tomography, as well as immuno-EM. For movies, cells were imaged at 60 sec intervals every 5 min, for a total of 30 min.
The A18-C3 cells were cultured in DMEM (Invitrogen) supplemented with fetal bovine serum (20%), penicillin (50 U/mL), streptomycin (50 μg/mL, Invitrogen) and Geneticin/G418 (500 μg/mL, Gibco) at 37° C. in 5% CO2. Transfection was conducted when cells were 60-70% confluence. Appropriate plasmids were mixed with FuGENE HP extreme reagent (Roche Diagnostic), according to manufacturer's protocol, and incubated for 30 min. Twenty-four h after transfection, cells were switched to lipid-rich media containing OA (0.4 mM) for additional 16 h prior to imaging and biochemical analysis. In silencing experiments, appropriate siRNAs were transfected into cells using the X-treme GENE siRNA regent (Roche Diagnostic). Localization of siRNA in transfected cells in situ was carried out using the Cy5 Label IT-siRNA Tracker (Minis Bioscience #7213) according to manufacturer's protocol. Forty-eight h after transfection, cells were switched to lipid-rich media containing OA (0.4 mM) for additional 16 h prior to imaging and biochemical analysis.
Quantification of lipid droplets was carried out using confocal and differential interface contrast (DIC) microscopy. Lipid droplets were stained with LipidTOX Red (Invitrogen) before adding OA or EPA. All images were visualized using a 63× oil immersion objective lens. Z-series stacks were acquired with 0.2 μm steps. […]

[3] = tested on: McA-RH7777 cells (A18-C3); test: Live imaging of lysosomal motility and lysosome-CLD interaction (kiss-and-run); type: cell-based, rat; conditions: for lysosomal adherence to / dissociation from CLD (the off phase): Arl8b-expressing cells, EPA
[4] = transfection of PD primary neurons

B1: Arl8b^T34N: putative GDP-bound, dominant negative Arl8b mutant (Thr-to-Asn at 34; SEQ ID NO: 12), expressed from plasmid or adenovirus Adv-MG1023; tagged forms used (protein)
chain: MLALISRLLDWFRSLFWKEEMELTLVGLQYSGKNTFVNVIASGQFSEDMIPTVGFNMRKVTKGNVTIKIWDIGGQPRFRSMWERYCRGVNAIVYMIDAADREKIEASRNELHNLLDKPQLQGIPVLVLGNKRDLPNALDEKQLIEKMNLSAIQDREICCYSISCKEKDNIDITLQWLIQHSKSRRS
modifications: GFP/RFP tags in some forms; T34N substitution, GDP-binding
notes: tagged forms used
axonal swelling and degeneration in PD primary neurons [1, 4]: restored axonal swelling and degeneration; also recorded: restore axons
lysosomal phenotype (ring shape structure) in PD primary neurons [1, 4]: cleared the ring shape structure of lysosomes
abdominal fat accumulation (mice): less abdominal fat
fatty liver (Oil Red O) (mice): more resistant to fatty liver
obesity (mice): less obese
lipid content of lipid-laden cells without addition of EPA ([2]; OA-treatment conditions, transfected cells): lipid content is lowered
effect on the inhibition of microautolipophagy by Vps41 and GTP-bound Arl8b ([2]; cell culture studies): can override the inhibitory effect of Vps41 and a GTP-bound form of Arl8b on microautolipophagy
effect on EPA-induced lipid degradation (CLD turnover) [2]: accelerated
lysosomal adherence to / dissociation from CLD (the off phase) [3]: fastened

B2: Arl8b^Q75L: putative GTP-bound, dominant active Arl8b mutant (Gln-to-Leu at 75; SEQ ID NO: 13), expressed from plasmid or adenovirus Adv-MG1022; tagged forms used (protein)
chain: MLALISRLLDWFRSLFWKEEMELTLVGLQYSGKTTFVNVIASGQFSEDMIPTVGFNMRKVTKGNVTIKIWDIGGLPRFRSMWERYCRGVNAIVYMIDAADREKIEASRNELHNLLDKPQLQGIPVLVLGNKRDLPNALDEKQLIEKMNLSAIQDREICCYSISCKEKDNIDITLQWLIQHSKSRRS
modifications: GFP/RFP tags in some forms; Q75L substitution, GTP-binding
notes: tagged forms used
lysosomal phenotype of normal primary neurons ([1]; transfection of normal primary neurons): converts normal neuronal lysosomes to PD primary neuron phenotype
effect on EPA-induced lipid degradation (CLD turnover) [2]: completely blocked
lysosomal adherence to / dissociation from CLD (the off phase) [3]: no disassociation of lysosomes from CLD occurred
lysosomal adherence to / dissociation from CLD (the off phase) ([3]; listed as GFP::Arl8b^Q75L): prolonged lysosomal adherence to CLD
effect on EPA-triggered lysosomal motility / lysosomal interaction with CLD ([3]; cells silenced, transfected or pre-treated (15 min) before EPA): higher incidence of direct lysosome-lipid droplet interaction
